Data as given in patent US20190256592A1 (GENAGON THERAPEUTICS, published 2019).
Each block holds one molecule with its values, some of them ahead of it.

Tests used:
[1] = molecular target: Cleft Lip and Palate Transmembrane protein 1 (CLPTM1), human, native, in cells (human) (UniProt O96005); experiment: flow cytometry on permeabilised O-876 cells expressing native CLPTM1, 10x dilution series
[2] = molecular target: Cleft Lip and Palate Transmembrane protein 1 (CLPTM1), human, native, in cells (human) (UniProt O96005); experiment: flow cytometry on permeabilised O-876 cells expressing native CLPTM1
[3] = molecular target: T1, Cleft Lip and Palate Transmembrane protein 1 (CLPTM1), human, native, in cells (human, UniProt O96005 2-669); experiment: as above
T1 construct: Native CLPTM1 as expressed by cells; also called CLPTM1 receptor
T1 sequence: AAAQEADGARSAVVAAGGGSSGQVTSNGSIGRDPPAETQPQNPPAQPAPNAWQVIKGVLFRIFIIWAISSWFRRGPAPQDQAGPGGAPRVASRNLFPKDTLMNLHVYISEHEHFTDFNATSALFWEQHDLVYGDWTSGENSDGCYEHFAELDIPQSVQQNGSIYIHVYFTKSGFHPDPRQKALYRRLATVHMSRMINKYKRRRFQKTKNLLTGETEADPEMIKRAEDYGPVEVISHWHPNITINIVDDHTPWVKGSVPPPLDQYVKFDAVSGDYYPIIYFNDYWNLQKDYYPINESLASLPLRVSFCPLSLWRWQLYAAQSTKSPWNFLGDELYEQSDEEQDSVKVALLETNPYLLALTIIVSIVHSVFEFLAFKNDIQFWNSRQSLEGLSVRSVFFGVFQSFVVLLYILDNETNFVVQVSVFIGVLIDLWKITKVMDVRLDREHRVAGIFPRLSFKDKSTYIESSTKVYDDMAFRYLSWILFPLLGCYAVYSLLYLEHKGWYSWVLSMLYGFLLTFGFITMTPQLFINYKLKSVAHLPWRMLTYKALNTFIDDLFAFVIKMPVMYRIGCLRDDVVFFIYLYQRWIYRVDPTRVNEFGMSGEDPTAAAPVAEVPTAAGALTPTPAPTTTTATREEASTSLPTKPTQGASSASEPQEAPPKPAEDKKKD
Description: (§1) Affinity of antibodies was determined by finding the half-maximal binding on the native target in a flow cytometry assay. Since the native target is found inside most cells and rarely on the cell surface, the assay was performed using plasma membrane-permeabilized cells, an intra-cellular staining protocol. Using the native target is more applicable when evaluating and comparing various antibodies as it is the true antigen to be bound in a therapeutic setting in vivo. 0-876 cells were permeabilized with BD-fix and permeabilization buffer (554722 BD-Biosciences). Antibody at various concentrations was incubated with cells for 30 minutes at +4 C, then washed twice with wash buffer (BD-Biosciences 554723). Secondary antibodies a-mouse IgG-PE (Molecular Probes) was used for mouse monoclonal antibodies according to manufacturer's instructions and a-rabbit-IgG-PE (Molecular Probes) for rabbit monoclonal antibody (Abcam ERP8800). Three washes followed and fluorescence intensity in cells was quantified by FACS Cantoll in PBS with cells in 2% FCS buffer.
(§2) The assay was performed on 0-876 cancer cell line.

[4] = molecular target: T1, Cleft Lip and Palate Transmembrane …; experiment: flow cytometry on permeabilised O-876 cells expressing native CLPTM1; Kd defined by half maximal binding
Description: as §1, §2

MIKRAEDYGPVEVISHWHPNG = molecular target: T2, MIKRAEDYGPVEVISHWHPNG (biotinylated; C-terminal glycine not from CLPTM1); experiment: ELISA: biotinylated CLPTM1 peptide on streptavidin plate, GDF15 at 100 ng/ml, detected with goat anti-GDF15 and anti-goat-HRP
T2 construct: also called G12
T2 peptide: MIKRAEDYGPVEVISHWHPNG
Description: (§3) Biotinylated synthetic peptide fragments from CLPTM1 (JPT peptides, Germany) were immobilized in a streptavidin 96 well plate (#15500 Pierce) at 1 μM in PBS overnight at +4° C. Plate was washed 4 times in 300 μl PBS with 0.05% Tween-20 (wash buffer). The plate was blocked with PBS 1% BSA and 0.05% Tween-20 (blocking buffer) for 1.5 hours at room temperature then washed 4 times in wash buffer. GDF15 ligand (Abcam) was added in blocking buffer at 100 ng/ml and incubated at room temperature for 2 hours. The plate was then washed 8 times in 300 μl wash buffer with 2×NaCl. A GDF15 antibody as added at 1 μg/ml (R&D systems goat polyclonal) and incubated in block buffer for 1 hour at room temperature followed by washing with 4×300 μl wash buffer. HAF017 anti-goat-HRP antibody was added and incubated for 1 hour in blocking buffer followed by a wash. TMB substrate was added and stopped after 15 minutes with H2SO4. OD 450-620 was measured in an ELISA reader.
(§4) Polypeptides having sequences set forth in SEQ ID NOs:10-33 were assessed for binding to GDF15 (corresponding to the polypeptides indicated from left to right in FIG. 2 and shown in Table 1). These proteins were synthesised with a C-terminal glycine residue that is not present in the corresponding sequences from CLPTM1.

WQVIKGVLFRIFIIWAISSWG = molecular target: T3, WQVIKGVLFRIFIIWAISSWG (biotinylated; C-terminal glycine not from CLPTM1); experiment: as above
T3 construct: also called G22
T3 peptide: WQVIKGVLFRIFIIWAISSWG
Description: as §3, §4

AAAQEADGARSAVVAAGGGSG = molecular target: T4, AAAQEADGARSAVVAAGGGSG (biotinylated; C-terminal glycine not from CLPTM1); experiment: as above
T4 construct: also called G1
T4 peptide: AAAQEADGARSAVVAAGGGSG
Description: as §3, §4

QAGPGGAPRVASRNLFPKDTG = molecular target: T5, QAGPGGAPRVASRNLFPKDTG (biotinylated; C-terminal glycine not from CLPTM1); experiment: as above
T5 construct: also called G5
T5 peptide: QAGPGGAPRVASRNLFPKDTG
Description: as §3, §4

QNPPAQPAPNAWQVIKGVLFG = molecular target: T6, QNPPAQPAPNAWQVIKGVLFG (biotinylated; C-terminal glycine not from CLPTM1); experiment: as above
T6 construct: also called G3
T6 peptide: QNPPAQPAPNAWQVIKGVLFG
Description: as §3, §4

[5] = molecular target: T7, CLPTM1 peptide G20 (residues 292-311 with C-terminal glycine) (human, biotinylated (position not given)); experiment: as above
T7 construct: Biotinylated synthetic peptide on a streptavidin plate; The C-terminal glycine is not in CLPTM1
T7 peptide: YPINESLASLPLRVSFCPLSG
Description: as §3, §4

RRRFQKTKNLLTGETEADPEG = molecular target: T8, RRRFQKTKNLLTGETEADPEG (biotinylated; C-terminal glycine not from CLPTM1); experiment: as above
T8 construct: also called G11
T8 peptide: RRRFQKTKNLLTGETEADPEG
Description: as §3, §4

RIFIIWAISSWFRRGPAPQDG = molecular target: T9, RIFIIWAISSWFRRGPAPQDG (biotinylated; C-terminal glycine not from CLPTM1); experiment: as above
T9 construct: also called G4
T9 peptide: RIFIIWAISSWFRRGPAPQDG
Description: as §3, §4

LWRWQLYAAQSTKSPWNFLGG = molecular target: T10, LWRWQLYAAQSTKSPWNFLGG (biotinylated; C-terminal glycine not from CLPTM1); experiment: as above
T10 construct: also called G19
T10 peptide: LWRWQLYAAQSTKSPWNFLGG
Description: as §3, §4

[6] = molecular target: T11, CLPTM1 peptide G9 (residues 162-181 with C-terminal glycine) (human, biotinylated (position not given)); experiment: as above
T11 construct: Biotinylated synthetic peptide on a streptavidin plate; The C-terminal glycine is not in CLPTM1
T11 peptide: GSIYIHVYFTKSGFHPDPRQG
Description: as §3, §4

[7] = molecular target: T12, CLPTM1 peptide G21 (residues 273-292 with C-terminal glycine) (human, biotinylated (position not given)); experiment: as above
T12 construct: Biotinylated synthetic peptide on a streptavidin plate; The C-terminal glycine is not in CLPTM1
T12 peptide: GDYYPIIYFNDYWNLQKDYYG
Description: as §3, §4

NDYWNLQKDYYPINESLASLG = molecular target: T13, NDYWNLQKDYYPINESLASLG (biotinylated; C-terminal glycine not from CLPTM1); experiment: as above
T13 construct: also called G15
T13 peptide: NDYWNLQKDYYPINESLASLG
Description: as §3, §4

[8] = molecular target: T14, CLPTM1 peptide G14 (residues 262-281 with C-terminal glycine) (human, biotinylated (position not given)); experiment: as above
T14 construct: Biotinylated synthetic peptide on a streptavidin plate; The C-terminal glycine is not in CLPTM1
T14 peptide: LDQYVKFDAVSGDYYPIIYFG
Description: as §3, §4

SALFWEQHDLVYGDWTSGENG = molecular target: T15, SALFWEQHDLVYGDWTSGENG (biotinylated; C-terminal glycine not from CLPTM1); experiment: as above
T15 construct: also called G7
T15 peptide: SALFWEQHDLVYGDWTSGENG
Description: as §3, §4

SDGCYEHFAELDIPQSVQQNG = molecular target: T16, SDGCYEHFAELDIPQSVQQNG (biotinylated; C-terminal glycine not from CLPTM1); experiment: as above
T16 construct: also called G8
T16 peptide: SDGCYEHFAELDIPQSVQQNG
Description: as §3, §4

SGQVTSNGSIGRDPPAETQPG = molecular target: T17, SGQVTSNGSIGRDPPAETQPG (biotinylated; C-terminal glycine not from CLPTM1); experiment: as above
T17 construct: also called G2
T17 peptide: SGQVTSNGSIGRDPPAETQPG
Description: as §3, §4

[9] = molecular target: T18, CLPTM1 peptide G10 (residues 182-201 with C-terminal glycine) (human, biotinylated (position not given)); experiment: as above
T18 construct: Biotinylated synthetic peptide on a streptavidin plate; The C-terminal glycine is not in CLPTM1
T18 peptide: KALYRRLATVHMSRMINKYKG
Description: as §3, §4

YEQSDEEQDSVKVALLETNPG = molecular target: T19, YEQSDEEQDSVKVALLETNPG (biotinylated; C-terminal glycine not from CLPTM1); experiment: as above
T19 construct: also called G18
T19 peptide: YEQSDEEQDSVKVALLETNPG
Description: as §3, §4

[10] = molecular target: T20, …; experiment: as above
T20 sequence (peptide, biotinylated; C-terminal glycine not from CLPTM1): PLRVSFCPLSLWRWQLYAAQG

[11] = molecular target: T21, …; experiment: as above; remark: listed apart in the source
T21 sequence (peptide, biotinylated; C-terminal glycine not from CLPTM1): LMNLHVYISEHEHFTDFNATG

[12] = molecular target: T22, …; experiment: as above; remark: listed apart in the source
T22 sequence (peptide, biotinylated; C-terminal glycine not from CLPTM1): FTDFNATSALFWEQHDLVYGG

[13] = molecular target: T23, …; experiment: as above; remark: listed apart in the source
T23 sequence (peptide, biotinylated; C-terminal glycine not from CLPTM1): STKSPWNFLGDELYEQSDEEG

[14] = molecular target: T24, …; experiment: as above; remark: listed apart in the source
T24 sequence (peptide, biotinylated; C-terminal glycine not from CLPTM1): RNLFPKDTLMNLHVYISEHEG

percent of maximum binding at 0.1 µg/ml [1]: > 50%
percent of maximal binding at 1 µg/mL [2]: > 50%
Molecule: AbCam anti-CLPTM1 rabbit monoclonal antibody EPR8800 (RabMab)

OD ELISA 450nm - 620nm (MIKRAEDYGPVEVISHWHPNG): 0.028 OD
OD ELISA 450nm - 620nm (WQVIKGVLFRIFIIWAISSWG): 0.023 OD
OD ELISA 450nm - 620nm (AAAQEADGARSAVVAAGGGSG): 0.022 OD
OD ELISA 450nm - 620nm (QAGPGGAPRVASRNLFPKDTG): 0.034 OD
OD ELISA 450nm - 620nm (QNPPAQPAPNAWQVIKGVLFG): 0.042 OD
OD ELISA 450nm - 620nm [5]: 0.22 OD
OD ELISA 450nm - 620nm (RRRFQKTKNLLTGETEADPEG): 0.021 OD
OD ELISA 450nm - 620nm (RIFIIWAISSWFRRGPAPQDG): 0.026 OD
OD ELISA 450nm - 620nm (LWRWQLYAAQSTKSPWNFLGG): 0.033 OD
OD ELISA 450nm - 620nm [6]: 0.149 OD
OD ELISA 450nm - 620nm [7]: 0.507 OD
OD ELISA 450nm - 620nm (NDYWNLQKDYYPINESLASLG): 0.038 OD
OD ELISA 450nm - 620nm [8]: 0.14 OD
OD ELISA 450nm - 620nm (SALFWEQHDLVYGDWTSGENG): 0.034 OD
OD ELISA 450nm - 620nm (SDGCYEHFAELDIPQSVQQNG): 0.024 OD
OD ELISA 450nm - 620nm (SGQVTSNGSIGRDPPAETQPG): 0.009 OD
OD ELISA 450nm - 620nm [9]: 0.197 OD
OD ELISA 450nm - 620nm (YEQSDEEQDSVKVALLETNPG): 0.022 OD
OD ELISA 450nm - 620nm [10]: 0.063 OD
OD ELISA 450nm - 620nm [11]: 0.058 OD
OD ELISA 450nm - 620nm [12]: 0.061 OD
OD ELISA 450nm - 620nm [13]: 0.053 OD
OD ELISA 450nm - 620nm [14]: 0.055 OD
B2: Growth and Differentiation Factor 15 (GDF15) (ligand, UniProt Q99988 197-308, looked up)
chain: ARNGDHCPLGPGRCCRLHTVRASLEDLGWADWVLSPREVQVTMCIGACPSQFRAANMHAQIKTSLHRLKPDTVPAPCCVPASYNPMVLIQKTDTGVSLQTYDDLLAKDCHCI
notes: Bought protein (Abcam); also called MIC-1; GDF15 ligand (Abcam)

The next lines start with the molecule.

Molecule: Santa Cruz mouse anti-human CLPTM1 monoclonal antibody (G-7) (sc-374619)
percent of maximum binding at 1 µg/ml [1]: < 50%

B1: Mouse monoclonal anti-CLPTM1 antibody 7G12 (antibody, V domains shown)
VH: QVQLQQSGTELVRPGTSVKVSCKASGYAFTNYLIEWVKQRPGQGLEWIGVINPGSGGTRYNEKFKGKATLTADKSSTTAHMQLSSLTSDDSAVYCARWGGNYSGYAMDYWGQGTSVTVSS
VL: QIVLTQSPVIMSASPGEKVTITCSASSSVSYMHWFQQKPGTSPKLWIYSTSNLASGVPARFSGSGSGTSYSLTISRMEAEDAATYYCQQRSSYPPTFGAGTKL
notes: Mouse IgG1 heavy chain, kappa light chain; also called mAb 7G12; 7G12hyb
EC50 [3]: < 1 µg/mL
Kd [4]: < 1 nM
